The source of these data is PMC2805098.

Substrate in series [1]: Nc1nc2c(c(=O)[nH]1)N1CN(c3ccc(C(=O)N[C@@H](CCC(=O)O)C(=O)O)cc3)C[C@H]1CN2
Briefly: NADH-CH2-H4folate oxidoreductase assay, steady-state. In kind it is biochemical, Escherichia coli. The following applies: other: 1000 μM NADH, fit to eq 6, anaerobic, 25 °C, pH 7.2.

Substrate in series [2]: Nc1nc2c(c(=O)[nH]1)N1CN(c3ccc(C(=O)N[C@@H](CCC(=O)O)C(=O)O)cc3)C[C@H]1CN2
Briefly: purified protein, by the assay type. The following applies: other: 500 μM NADH, anaerobic, 25 °C, pH 7.2.

B1: Phe223Leu MTHFR (Escherichia coli K-12; F223L) (protein)
chain: MSFFHASQRDALNQSLAEVQGQINVSFEFFPPRTSEMEQTLWNSIDRLSSLKPKFVSVTYGANSGERDRTHSIIKGIKDRTGLEAAPHLTCIDATPDELRTIARDYWNNGIRHIVALRGDLPPGSGKPEMYASDLVTLLKEVADFDISVAAYPEVHPEAKSAQADLLNLKRKVDAGANRAITQFFFDVESYLRFRDRCVSAGIDVEIIPGILPVSNFKQAKKLADMTNVRIPAWMAQMFDGLDDDAETRKLVGANIAMDMVKILSREGVKDFHFYTLNRAEMSYAICHTLGVRPGL
What is called Km is the concentration of substrate that gives half-maximal velocity. In the case of B1, the Km in series [1] stood at 8 ± 2 µM.

B2: Phe223Ala MTHFR (Escherichia coli K-12; F223A) (protein)
chain: MSFFHASQRDALNQSLAEVQGQINVSFEFFPPRTSEMEQTLWNSIDRLSSLKPKFVSVTYGANSGERDRTHSIIKGIKDRTGLEAAPHLTCIDATPDELRTIARDYWNNGIRHIVALRGDLPPGSGKPEMYASDLVTLLKEVADFDISVAAYPEVHPEAKSAQADLLNLKRKVDAGANRAITQFFFDVESYLRFRDRCVSAGIDVEIIPGILPVSNFKQAKKAADMTNVRIPAWMAQMFDGLDDDAETRKLVGANIAMDMVKILSREGVKDFHFYTLNRAEMSYAICHTLGVRPGL
In the case of B2, the Km in series [2] was 93 ± 16 µM.
